Laboratory results: patent US20140170677A1

Legend:
[1] = molecular target: human CXCR4 (Chemokine receptor 4) (human) (UniProt P61073); experiment: FACS on Hela cells (endogenous CXCR4), antibody at 10 ug/ml
[2] = molecular target: human CXCR4 (Chemokine receptor 4) (human) (UniProt P61073); experiment: FACS on U937 cells (endogenous CXCR4), antibody at 10 ug/ml
[3] = molecular target: human CXCR4 (Chemokine receptor 4) (human) (UniProt P61073); experiment: FACS on MDA-MB-231 cells (endogenous CXCR4), antibody at 10 ug/ml

Chain of UniProt P61073 (P61073 whole entry): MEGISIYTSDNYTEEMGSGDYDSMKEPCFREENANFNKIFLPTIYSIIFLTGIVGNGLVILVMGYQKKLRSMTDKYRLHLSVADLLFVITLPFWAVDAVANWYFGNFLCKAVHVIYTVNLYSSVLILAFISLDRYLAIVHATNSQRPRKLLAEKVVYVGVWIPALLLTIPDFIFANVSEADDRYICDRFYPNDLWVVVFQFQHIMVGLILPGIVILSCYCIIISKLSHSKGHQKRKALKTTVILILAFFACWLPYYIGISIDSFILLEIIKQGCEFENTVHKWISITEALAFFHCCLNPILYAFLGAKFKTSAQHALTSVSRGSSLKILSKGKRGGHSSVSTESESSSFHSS

B1: anti-CXCR4 I-3859 monoclonal antibody (Mab) (antibody, V domains shown)
VH: QVQLKESGPGLVAPSQSLSITCTVSGFSLTDYGVYWVRQPPGKGLEWLGMIWGDGTTDYNSALKSRLSISKDNSKSQVFLKMNTLQTDDTARYYCARGRQFGFDYWGQGTTLTVSS
VL: DIVMSQSPSSLAVSAGEKVTMRCKSSQSLFNSRTRKNYLAWYQQKPGQSPKLLIFWASIRESGVPDRFTGSGSGTDFTLTISSVQAEDLAVYYCKQSYNLRTFGGGTKLEIK
B1 gave an MFI [1] of 633 MFI, an MFI [2] of 246 MFI and an MFI [3] of 59 MFI.
